Entries after “also recorded” stand apart in the source; their conditions may differ.
Tested on: MDA-MB-231 cell line
Assay: Aptamer binding assay to MDA-MB-231 cells by flow cytometry
Design: species or system human
Conditions: biotin-conjugated aptamer
Method: DNA sequences for anti-human KIT aptamer (21) and mouse c-Kit aptamers (22) conjugated with biotin at 3′ were functionalized by short denaturation-renaturation step (95° C. 10 min, 5 min snap-cooling on ice). These DNA sequences were 5′-[…] […]-3′ (SEQ ID NO: 2) for human KIT, 5′-[…]-3′ (SEQ ID NO:3) for mouse c-Kit. These activated aptamers were used for binding assay to the cell lines by flow cytometry. For chimera preparation, human KIT-aptamer or mouse c-Kit-aptamer miR-26a chimera was assembled by three compartments of DNA/RNA hybrid sequences. The sequences were 5′-[…] […]/C3 (SEQ ID NO:4) spacer/CCUAUUCUGG-3′(SEQ ID NO:5) for human KIT aptamer+the part of passenger sequence for miR-26a-5p, 5′-[…]/C3 (SEQ ID NO:6) spacer/CCUAUUCUGG-3′ (SEQ ID NO:7) for mouse cKit aptamer+the part of passenger sequence for miR-26a-5p, 5′-GUUACUUGCACG/TEG (triethylene glycol)-Cholesterol-3′ (SEQ ID NO:8) for the part of sequence for miR-26a-5p+cholesterol, and 5′-[…]-3′ (SEQ ID NO:9) for guide sequence for miR-26a-5p (RNA sequences were represented as italic). The guide sequence for scramble control was […] (SEQ ID NO:10). To protect the oligonucleotide sequences from nuclease degradation, phosphorothioate bonds were introduced between the last 3 nucleotides at the 5′-end of DNA aptamers. The RNA sequences were modified with 2′-fluoro-uridines. […]

B1: human KIT aptamer: DNA aptamer against human KIT, SEQ ID NO:2, conjugated with biotin at 3′ for binding assay (nucleic acid)
DNA: GAGGCATACCAGCTTATTCAAGGGGCCGGGGCAAGGGGGGGGTACCGTGGTAGGACATAGTAAGTGCAATCTGCGAA
modifications: DNA, 3' {Biotin}, backbone not given here; further chemistry not fully specified
- binding to MDA-MB-231 cell line: confirmed the binding; also recorded: nearly identical distribution of KIT expression
